Tests used:
Type in all cases: in vivo
DIO mice [1] = assay: NT-4/5 versus BDNF on body weight and food intake of DIO mice (Example 10)
Text: (§1) Test animals: Mice with diet induced obesity (DIO) were used in this study. 22 male C57BL/6J mice were weaned at 4 weeks of age. Immediately after weaning they were put on 58% high fat diet (D12331i, Research Diet) through out the study. The DIO mice at 13 weeks of age weighing in the range of 28-40 g were used in this study.
Administration of NT-4/5 and BDNF: NT-4/5 was produced was produced as described in U.S. Pat. No. 6,184,360. The recombinant human BDNF was obtained from PeproTech Inc. (Rocky Hill, N.J.).
The mice were divided into 3 groups of equivalent body weight distribution (7-8 mice per group). Each group received 2 weekly intravenous doses of either vehicle, 2 mg/kg of NT-4/5 or 2 mg/kg of BDNF, respectively. Body weight and food intake were taken the day before treatment started (day 0) and followed subsequently on a daily basis.

DIO mice [2] = assay: Body weight, food intake, body composition and bone density (PIXImus) in DIO mice (Example 9)
Text: as §1, with “29” for “22”
Administration of NT-4/5: NT-4/5 was obtained from Genentech Inc. or produced as described in U.S. Pat. No. 6,184,360. The mice were divided into 2 groups of equivalent body weight distribution (8 mice per group). The mice were acclimated individually in the Comprehensive Cage Monitoring System (CCMS, Columbus Instruments) for 2 days, in preparation for the indirect calorimetry, before the treatment started. Each group received 5 daily subcutaneous doses of either vehicle or 10 mg/kg of NT-4/5, respectively. Body weight and food intake were monitored 5 days per week through out the entire study. The CCMS monitoring and data analysis of oxygen consumption and carbon dioxide production were carried out according published and commonly accepted protocols as described at website of Jackson Laboratory. The body composition, i.e. percent lean body mass, fat content, and bone density was determined the day both before treatment started (day 0) and the final day of treatment (day 5) with a PIXImus Mouse Densitometer (GE Lunar Medical Systems, Madison, Wis.) using software version 1.46. Brommage et al., Am. J. Physiol. Endocrinol. Metab. 285: 454-459 (2003).

Sprague-Dawley rats = assay: Heat/thermal hyperalgesia, latency for foot withdrawal (Example 13)
Protocol: To test whether NT-4/5 elicits pain in animals after NT-4/5 administration, a heat/thermal hyperalgesia animal model was used for testing. […] Then the latency for foot withdrawal in response to a constant radiant heat source was measured. See, Hargreaves et al., Neurology 48:501-505 (1997); Shu et al., Pain 80:463-470 (1999).

DIO mice [3] = assay: Body weight and food intake in high fat diet-induced obese (DIO) mice (Example 5); settings: 2 and 10 mg/kg s.c.; P<0.001; dose dependent
Protocol: Test animals: Mice with diet induced obesity (DIO) from Jackson Laboratory were used in this study. El-Haschimi, J. Clin. Invest. 105:1827-1832 (2000); Steppan, Nature 409:307-312 (2001). 23 male C57BL/6J mice were weaned at 4 weeks of age. Immediately after weaning they were put on about 58% high fat diet ([…], Research Diet) through out the study. The DIO mice at 13 weeks of age weighing in the range of 28-40 g were used in this study. Older mice at 22-24 weeks of age were also used.
Administration of NT-4/5: NT-4/5 used in this study was obtained from Genentech. The mice were divided into 3 groups of equivalent body weight and baseline blood glucose distribution (7-8 mice per group). Each group received from day 1 to day 5, from day 8 to day 12, from day 15 to 16 a daily subcutaneous dose of either vehicle, 2 mg/kg or 10 mg/kg of NT-4/5, respectively. Five days prior to the treatment started (day −5), a baseline blood samples were collected for measuring glucose and triglyceride. Subsequent to the treatment started (day 1), blood glucose and triglyceride were measured once a week. Body weight, food intake were monitored 5 days per week through out the entire study. […] They were fasted overnight (for 16 hours) before fasting glucose levels were measured and the oral glucose tolerance test was conducted with a load of 2 grams of glucose/kg of body weight.

db/db female mice = assay: Survival time in db/db mice (Example 12)
Protocol: Db/db female mice maintained as described in Example 1 were divided into two groups. Group 1 (8 mice) were administered with vehicle (PBS). Group 2 (6 mice) was each administered with NT-4/5 at the doses of 20 mg/kg. Both the vehicle and NT-4/5 were administered subcutaneously once daily from day 1 to day 26, and were then followed up for survival. Mortality is defined by the body wasting below 60% of the starting body weight (i.e., from about 40 g down to about 24 g) or natural death, whichever happened first.

[4] = system: NONcNZO-10 polygenic obese mice; assay: Pegylated NT-4/5 cysteine mutant on body weight, food intake, glucose, triglyceride in NONcNZO-10 mice (Example 6)
Protocol: Test animals: 30 male NONcNZO-10 polygenic obese mice at 10 weeks of age weighing in the range of 27-32 g were used in this study.
Administration of NT-4/5 and pegylated NT-4/5: The mice were divided into 4 groups of equivalent body weight distribution (7-8 mice per group). Each group received on the first day (day 1) of the study one and the only dose of either vehicle alone, 1 mg/kg of NT-4/5 or 1 mg/kg of PEG-NT4-S50C, respectively. A final group received a daily subcutaneous dose of 1 mg/kg of NT-4/5 from day 1 to day 5, then from day 7 to day 9. On day 9 after the treatment started, blood samples were collected to determine serum glucose and triglyceride levels. Body weight and food intake were monitored 5 days a week through out the entire study.

[5] = weekly intravenous injection, 2 mg/kg
[6] = single subcutaneous injection of 1 mg/kg, day 9

B1: NT-4/5: mature human neurotrophin-4/5 (SEQ ID NO:1), obtained from Genentech or produced in E. coli (protein, listed as Homo sapiens)
chain: GVSETAPASRRGELAVCDAVSGWVTDRRTAVDLRGREVEVLGEVPAAGGSPLRQYFFETRCKADNAEEGGPGAGGGGCRGVDRRHWVSECKAKQSYVRALTADAQGRVGWRWIRIDTACVCTLLSRTGRA
body weight on day 2 (DIO mice [1]; 2 mg/kg i.v.): reduced body weight significantly
food intake on day 2 (DIO mice [1]; 2 mg/kg i.v.): reduced food intake significantly
body weight (DIO mice [1]; [5]): reduced the body weight more effectively than that of BDNF
food intake (DIO mice [1]; [5]): reduced the food intake more effectively than that of BDNF
body fat content (DIO mice [2]; 10 mg/kg s.c. daily): significantly reduced
body weight (DIO mice [2]; 10 mg/kg s.c. daily): significantly reduced
food intake (DIO mice [2]; 10 mg/kg s.c. daily): significantly reduced
lean body mass (DIO mice [2]; 10 mg/kg s.c. daily): but not the lean body mass
Bone mineral density (mean±SEM) (DIO mice [2]; day 0, 10 mg/kg group): 0.5235±0.0158 g/cm^2
Bone mineral density (mean±SEM) (DIO mice [2]; day 5, 10 mg/kg s.c. daily): 0.5452±0.0142 g/cm^2
bone density versus vehicle (DIO mice [2]; day 5, P<0.05): significantly different from that of the vehicle
pain (Sprague-Dawley rats; 2 mg/kg): did not cause pain
changes of latency for foot withdrawal in response to radiant heat (Sprague-Dawley rats; 2 mg/kg s.c., 3, 5 and 24 hour after administration): No statistically significant changes
body weight (DIO mice [3]): significantly reduced
food intake (DIO mice [3]): significantly reduced
median length of survival (db/db female mice; 20 mg/kg s.c. daily day 1 to 26, n=6): 257 days
difference in median survival versus vehicle control (db/db female mice; vehicle 192.5 days, not statistically significant (P=0.1331)): 65 days
triglyderide level reduction ([4]; daily dose of 1 mg/kg, on average, P<0.01): about 50%
blood glucose level reduction ([4]; daily dose of 1 mg/kg, on average, P<0.05): about 50%
Daily food intake ([4]; daily injection of 1 mg/kg): without affecting daily food intake
body weight ([4]; daily injection of 1 mg/kg): significantly reduced body weight
blood glucose level [4, 6]: did not significantly reduce
triglyceride level [4, 6]: did not significantly reduce

From patent US20090203610A1, “METHODS OF TREATING OBESITY OR DIABETES USING NT-4/5” (RINAT NEUROSCIENCE CORPORATION, priority 2004, published 2009)
